From PMC11934139

Target: αCRP scFv-His6 (LA13-IIE3)
Assay: BLI; αCRP scFv (2 μg/mL) immobilised on Octet Ni-NTA biosensors; CRP at 250, 125, 62.5, 15.6 and 7.8 nM; HBS Kinetics Buffer (1% heat-inactivated BSA, 0.2% Tween 20, 10 mM HEPES pH 7.4, 150 mM NaCl), 30 °C; two-state reaction model

- Kd: 0.588 µM
B1: human C-reactive protein (natural protein)
chain: QTDMSRKAFVFPKESDTSYVSLKAPLTKPLKAFTVCLHFYTELSSTRGYSIFSYATKRQDNEILIFWSKDIGYSFTVGGSEILFEVPEVTVAPVHICTSWESASGIVEFWVDGKPRVRKSLKKGYTVGAEASIILGQEQDSFGGNFEGSQSLVGDIGNVNMWDFVLSPDEINTIYLGGPFSPNVLNWRALKYEVQGEVFTKPQLWP
